According to patent US20180016312A1 (Pieris, published 2018):

T1: human angiopoietin-2 (human, UniProt O15123 19-496, limits assumed)
T1 construct: Bought recombinant protein with a His tag (detected by anti-HIS-tag antibody); also called human Ang-2; hAng-2
T1 sequence (looked up): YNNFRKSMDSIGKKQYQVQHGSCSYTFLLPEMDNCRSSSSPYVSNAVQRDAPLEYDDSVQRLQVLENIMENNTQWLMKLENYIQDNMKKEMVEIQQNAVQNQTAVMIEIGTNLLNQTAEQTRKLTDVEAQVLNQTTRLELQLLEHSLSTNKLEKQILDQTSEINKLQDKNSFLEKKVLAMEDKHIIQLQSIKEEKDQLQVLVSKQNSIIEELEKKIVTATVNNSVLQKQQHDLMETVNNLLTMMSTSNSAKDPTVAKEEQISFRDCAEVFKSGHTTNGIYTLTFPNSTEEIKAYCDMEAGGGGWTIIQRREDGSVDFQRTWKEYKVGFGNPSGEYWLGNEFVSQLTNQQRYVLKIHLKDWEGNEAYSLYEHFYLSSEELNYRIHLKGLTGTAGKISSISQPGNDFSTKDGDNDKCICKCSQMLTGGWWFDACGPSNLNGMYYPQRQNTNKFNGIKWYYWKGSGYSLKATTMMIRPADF

T2: mouse angiopoietin-2 (mouse, UniProt O35608 19-496, limits assumed)
T2 construct: Bought recombinant protein; also called mouse Ang-2; mAng-2
T2 sequence (looked up): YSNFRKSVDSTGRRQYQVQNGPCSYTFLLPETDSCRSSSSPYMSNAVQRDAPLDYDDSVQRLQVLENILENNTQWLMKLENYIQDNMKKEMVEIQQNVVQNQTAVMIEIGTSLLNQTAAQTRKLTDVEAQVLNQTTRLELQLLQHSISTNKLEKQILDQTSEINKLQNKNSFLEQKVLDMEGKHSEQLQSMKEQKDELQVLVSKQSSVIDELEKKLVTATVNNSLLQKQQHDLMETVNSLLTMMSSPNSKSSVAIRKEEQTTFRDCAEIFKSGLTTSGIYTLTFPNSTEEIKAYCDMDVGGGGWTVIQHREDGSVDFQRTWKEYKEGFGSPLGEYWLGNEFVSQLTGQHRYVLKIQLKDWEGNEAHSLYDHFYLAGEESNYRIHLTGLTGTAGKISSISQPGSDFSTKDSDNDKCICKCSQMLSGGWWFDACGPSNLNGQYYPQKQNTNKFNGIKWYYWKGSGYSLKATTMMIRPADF


Tests used:
human angiopoietin-2 [1] = biological target: T1, human angiopoietin-2; assay: competition ELISA; 0.5 nM hAng-2 pre-incubated with binder, free hAng-2 captured on hTie-2 Fc (competitor)
Procedure: All incubation steps were performed with shaking at 300 rpm, and the plate was washed after each incubation step with 80 μl PBS-T buffer (PBS, 0.05% Tween 20) for five times using a Biotek EL405 select CW washer (Biotek). In the first step, a 384 well plate was directly coated with 20 μl of soluble human hTie-2 Fc (Reliatech) at a concentration of […] in PBS over night at 4 ° C. After washing, h Tie-2 Fc coated wells were blocked with 60 μl PBS-T/BSA (2% BSA in PBS containing 0.1% Tween 20) for 1 h at room temperature.
Curve fitting was performed using GraphPad Prism 4 software.

human angiopoietin-2 [2] = biological target: T1, human angiopoietin-2; assay: cell-based or functional assay
human angiopoietin-2 [3] = biological target: T1, human angiopoietin-2; assay: SPR Biacore T200; biotinylated mutein captured, hAng-2 analyte, 1:1 model, 25 C
Procedure: In the SPR affinity assay, biotinylated muteins and negative control were captured on a sensor chip CAP using the Biotin CAPture Kit (GE Healthcare): Sensor Chip CAP is pre-immobilized with an ssDNA oligo. Undiluted Biotin CAPture Reagent (streptavidin conjugated with the complementary ss-DNA oligo) was applied at a flow rate of 2 μl/min for 300 s. Subsequently, 0.02 μg/mL of biotinylated muteins or negative control were applied for 300 s at a flow rate of 5 μl/min. […] The reference channel was loaded with Biotin CAPture Reagent only.
Applying a flow rate of 30 μL/min, a multi cycle kinetics approach was used with a sample contact time of 180 s and a dissociation time of 4600 s. All measurements were performed at 25° C. […] Data were evaluated with Biacore T200 Evaluation software (V 1.0). Double referencing was used. A 1:1 Binding model was used to fit the raw data even though the analyte was known to be a multimer.

human angiopoietin-2 [4] = biological target: T1, human angiopoietin-2; assay: ELISA; Ang-2 coated, mutein detected by anti-Streptag-HRP
Procedure: Binding of muteins was tested by a sandwich ELISA assay.
20 μl of serially diluted muteins were incubated in PBS-T/BSA for 1h at room temperature (RT).
The residual supernatants were discarded and 20 μl HRP-labeled anti-Streptag antibody was added at a predetermined optimal concentration in PBS-T/BSA and incubated for 1 h at RT. After washing, 20 μl fluorogenic HRP substrate (QuantaBlu, Thermo) was added to each well, and the reaction was allowed to proceed for 15 to 60 minutes. The fluorescence intensity of every well on the plate was read using a fluorescence microplate reader (Tecan or Molecular Devices). Curve fitting was performed using GraphPad Prism 4 software.

mouse angiopoietin-2 = biological target: T2, mouse angiopoietin-2; assay: competition cell ECL; mAng-2 pre-incubated with binder, free Ang-2 captured on HEK:hTie-2 cells (competitor)
Procedure: (§1) All incubation steps were performed at room temperature, and the plate was washed after each incubation step with 80 μl PBS buffer for two times using a Biotek EL405 select CW washer (Biotek). In the first step, a 384 well plate was precoated for 5 minutes with poly D lysine and washed twice with PBS. 10⁴ HEK:hTie-2 cells per well were seeded and allowed to adhere to the surface of the wells overnight at 37° C. . After washing, cell coated wells were blocked with 60 μl PBS/Casein (2% Casein in PBS) for 1 h at room temperature.
(§2) After washing, 35 μl surfactant-free reading buffer was added to each well and the ECL signal of every well was read using a Mesoscale Discovery reader.

human angiopoietin-2 [5] = biological target: T1, human angiopoietin-2; assay: competition cell ECL; hAng-2 pre-incubated with binder, free Ang-2 captured on HEK:hTie-2 cells (competitor)
Procedure: as §1, §2

Binder | IC50 (human angiopoietin-2 [1]) [nM] | IC50 mean, LEC proliferation assay (CellTiter-Glo) (human angiopoietin-2 [2]) [nM] | Kd (human angiopoietin-2 [3]) [nM] | koff (human angiopoietin-2 [3]) [s⁻¹] | EC50 (human angiopoietin-2 [4]) [nM] | IC50 (mouse angiopoietin-2) [nM] | IC50 (human angiopoietin-2 [5]) [nM]
benchmark antibody 1 (SEQ ID NOs: 17/18) (antibody, human IgG1, lambda, V domains shown) VH: not shown VL: QPGLTQPPSVSVAPGQTARITCGGNNIGSKSVHWYQQKPGQAPVLVVYDDSDRPSGIPERFSGSNSGNTATLTISRVEAGDEADYYCQVWDSSSDHYVFGTGTKVTVLG | 0.0158 | 0.0668 | – | – | – | – | –
hNGAL lipocalin mutein SEQ ID NO: 9 (designed binder, Mutein of mature hNGAL; Biotinylated with NHS-PEG4-Biotin for the SPR assay) QDSTSDLIPAPPLSKVPLQQNFQDNQFHGKWYVVGHAGNYILREDKDPGKMWATIYELKEDKSYDVTEVSFGPKKCNYRIWTFVPGSQPGEFTLGGIKSPPGGTSTLVRVVSTNYNQHAMVFFKHVLQNREFFEITLYGRTKELTSELKENFIRFSKSLGLPENHIVFPVPIDQCIDGSAWSHPQFEK | 0.0929 | 0.142 | 0.29 | 9.4e-05 | 2.1 | 1.39 | 3.82
hNGAL lipocalin mutein SEQ ID NO: 6 (designed binder, Mutein of mature hNGAL) QDSTSDLIPAPPLSKVPLQQNFQDNQFHGKWYVVGQAGNYILREDKDPEKMWATIYELKEDKSYDVTGVSFGPKKCNYRIWTFVPGSQPGEFTLGGIKSSPGQTSTLVRVVSTNYNQHAMVFFKHVLQNREFFEITLYGRTKELTSELKENFIRFSKSLGLPENHIVFPVPIDQCIDGSAWSHPQFEK | 0.0627 | – | – | – | – | 1.21 | 3.46
hNGAL lipocalin mutein SEQ ID NO: 10 (designed binder, Mutein of mature hNGAL) QDSTSDLIPAPPLSKVPLQQNFQDNQFHGKWYVVGQAGNYILREDKDPQKMWATIYELKEDKSYDVTGVSFGAKKCVYRIWTFVPGSQPGEFTLGGIKSPPGGTSTLVRVVSTNYNQHAMVFFKHVLQNREFFEITLYGRTKELTSELKENFIRFSKSLGLPENHIVFPVPIDQCIDGSAWSHPQFEK | 0.0794 | – | – | – | – | 1.05 | 4.63
hNGAL lipocalin mutein SEQ ID NO: 1 (designed binder, Mutein of mature hNGAL) QDSTSDLIPAPPLSKVPLQQNFQDNQFHGKWYVVGQAGNYILREDKDPGKMWATIYELKEDKSYNVTGVSFGPKKCNYTIWTFVPGSQPGEFTLGGIKSPPGGTSTLVRVVSTNYNQHAMVFFKHVLQNREFFEITLYGRTKELTSELKENFIRFSKSLGLPENHIVFPVPIDQCIDGSAWSHPQFEK | 0.558 | 2.25 | – | – | 3.7 | 3.98 | 18.9
hNGAL lipocalin mutein SEQ ID NO: 13 (designed binder, Mutein of mature hNGAL) QDSTSDLIPAPPLSKVPLQQNFQDNQFHGKWYVVGVAGNWYLREDKDPIKMTATIYELKEDKSYDVTQVGFEQEKCKYSIHTFVPGSQPGEFTLGDIKSWPGDTSPLVRVVSTNYNQHAMVFFKGMMQDREVFAITLYGRTKELTSELKENFIRFSKSLGLPENHIVFPVPIDQCIDGSAWSHPQFEK | 0.184 | – | – | – | – | 7.34 | 5.43
hNGAL lipocalin mutein SEQ ID NO: 12 (designed binder, Mutein of mature hNGAL) QDSTSDLIPAPPLSKVPLQQNFQDNQFHGKWYVVGVAGNWYLREDKDPIKMTATIYELKEDKSYDVTQVGFEQEKCKYSIHTFVPGSQPGEFTLGNIKSWPGDTSPLVRVVSTNYDQHAMVFFKGVMQDREVFAITLYGRTKELTSELKENFIRFSKSLGLPENHIVFPVPIDQCIDGSAWSHPQFEK | 0.131 | – | – | – | – | 3.12 | 5.29
hNGAL lipocalin mutein SEQ ID NO: 3 (designed binder, Mutein of mature hNGAL) QDSTSDLIPAPPLSKVPLQQNFQDNQFHGKWYVVGVAGNWYLREDKDPIKMTATIYELKEDKSYNVTQVGFEQKKCKYSIHTFVPGSQPGEFTLGDIKSWPGDTSLLVRVVSTNYNQHAMVFFKGVMQNREVFAITLYGRTKELTSELKENFIRFSKSLGLPENHIVFPVPIDQCIDGSAWSHPQFEK | 0.319 | 2.81 | – | – | 2.8 | 23.2 | 10.7
hNGAL lipocalin mutein SEQ ID NO: 14 (designed binder, Mutein of mature hNGAL) QDSTSDLIPAPPLSKVPLQQNFQDNQFHGKWYVVGMAGNWDLREDKDPIKMTATIYELKEDKSYDVTQVAFEQKKCKYSIHTFVPGSQPGEFTLGQIKSWPGDTSPLVRVVSTNYNQHAMVFFKGVMQNREVFAITLYGRTKELTSELKENFIRFSKSLGLPENHIVFPVPIDQCIDGSAWSHPQFEK | 0.105 | – | – | – | – | 2.32 | 6.41
hNGAL lipocalin mutein SEQ ID NO: 4 (designed binder, Mutein of mature hNGAL) QDSTSDLIPAPPLSKVPLQQNFQDNQFHGKWYVVGEAGNVELREDKDPVKMTATIYELKEDKSYNVTEVRFWLKKCKYNIHTFVPGSQPGEFTLGAIKSGPGMTSTLVRVVSTNYNQHAMVFFKTVMQNREWFWITLYGRTKELTSELKENFIRFSKSLGLPENHIVFPVPIDQCIDGSAWSHPQFEK | 0.412 | – | – | – | – | – | –
hNGAL lipocalin mutein SEQ ID NO: 5 (designed binder, Mutein of mature hNGAL) QDSTSDLIPAPPLSKVPLQQNFQDNQFHGKWYVVGQAGNYWLREDKDPIKMSATIYELKEDKSYNVTIVYFTRKKCSYRIYTFVPGSQPGEFTLGPIKSYPGDTSTLVRVVSTNYNQHAMVFFKHVYQNREWFEITLYGRTKELTSELKENFIRFSKSLGLPENHIVFPVPIDQCIDGSAWSHPQFEK | 0.861 | – | – | – | 3.5 | – | –
hNGAL lipocalin mutein SEQ ID NO: 2 (designed binder, Mutein of mature hNGAL) QDSTSDLIPAPPLSKVPLQQNFQDNQFHGKWYVVGFAGNHRLREDKDPGKMHATIYELKEDKSYNVTDVTFAFKKCNYRIHTFVPGSQPGEFTLGNIKSWPGETSTLVRVVSTNYNQHAMVFFKTVMQNREWFWITLYGRTKELTSELKENFIRFSKSLGLPENHIVFPVPIDQCIDGSAWSHPQFEK | 1.71 | – | – | – | 3 | – | –
